Read-outs that look alike come from different tables or passages of the source.
Experiments:
[1] = biological target: RsmN (Pseudomonas aeruginosa PAO1) (UniProt Q02EI1); assay: ITC
[2] = biological target: RsmN (His6-Thb-RsmN) (Pseudomonas aeruginosa PAO1); assay: SEC + native MS; gel filtration analysis and ESI-MS of the purified His-tagged RsmN construct; conditions in the Supplemental Information
[3] = biological target: RsmN R62A (Pseudomonas aeruginosa PAO1) (UniProt Q02EI1); assay: ITC; settings: ITC: 125 uM RNA titrated into protein, 25 mM potassium phosphate pH 7, 50 mM NaCl, 298 K; SEC: 50 uM protein, 100 uM RNA, same buffer
RsmA = RsmA (UniProt O69078 1-61); assay: ITC; 1 hairpin per monomer; ITC: 125 uM RNA titrated into protein, 25 mM potassium phosphate pH 7, 50 mM NaCl, 298 K; SEC: 50 uM protein, 100 uM RNA, same buffer; settings: protein: recombinant, tags: N-terminal His6-thrombin site (LVPRGS), chain copies: 2, 6-nt loop AAGGAU, G5-C12 closing pair

UAAAAGGAAUA [PA1003/pqsR ribosome binding site]
Kd [1]: 0.704 µM

GCGCAGGAAGCGC [RsmY-1 hairpin]
Kd [1]: 0.526 µM

RsmN (His6-Thb-RsmN) (natural protein)
stoichiometry N [2]: 2

CCCCGAAGGAUCGGGG [RsmZ-2 hairpin]
Kd ([1]; ITC: 125 uM RNA titrated into protein, 25 mM potassium phosphate pH 7, 50 mM NaCl, 298 K, SEC: 50 uM protein, 100 uM RNA, same buffer): 0.276 µM | binding signal (fold lower affinity than wild type) [3]: > 1000

B1: RsmZ-2 hairpin (structured_RNA)
RNA: CCCCGAAGGAUCGGGG
Kd (RsmA): 0.264 ± 0.043 µM

Source: article PMC3791407, “Structural Rearrangement in an RsmA/CsrA Ortholog of Pseudomonas aeruginosa Creates a Dimeric RNA-Binding Protein, RsmN”
